The results in this text go back to patent US20220348894, “DNA MODIFYING ENZYMES AND ACTIVE FRAGMENTS AND VARIANTS THEREOF AND METHODS OF USE” (LifeEDIT Therapeutics, Inc., published 2022).

One data set deals with T1, APG07433.1 (Bacillus sp.).
T1 chain: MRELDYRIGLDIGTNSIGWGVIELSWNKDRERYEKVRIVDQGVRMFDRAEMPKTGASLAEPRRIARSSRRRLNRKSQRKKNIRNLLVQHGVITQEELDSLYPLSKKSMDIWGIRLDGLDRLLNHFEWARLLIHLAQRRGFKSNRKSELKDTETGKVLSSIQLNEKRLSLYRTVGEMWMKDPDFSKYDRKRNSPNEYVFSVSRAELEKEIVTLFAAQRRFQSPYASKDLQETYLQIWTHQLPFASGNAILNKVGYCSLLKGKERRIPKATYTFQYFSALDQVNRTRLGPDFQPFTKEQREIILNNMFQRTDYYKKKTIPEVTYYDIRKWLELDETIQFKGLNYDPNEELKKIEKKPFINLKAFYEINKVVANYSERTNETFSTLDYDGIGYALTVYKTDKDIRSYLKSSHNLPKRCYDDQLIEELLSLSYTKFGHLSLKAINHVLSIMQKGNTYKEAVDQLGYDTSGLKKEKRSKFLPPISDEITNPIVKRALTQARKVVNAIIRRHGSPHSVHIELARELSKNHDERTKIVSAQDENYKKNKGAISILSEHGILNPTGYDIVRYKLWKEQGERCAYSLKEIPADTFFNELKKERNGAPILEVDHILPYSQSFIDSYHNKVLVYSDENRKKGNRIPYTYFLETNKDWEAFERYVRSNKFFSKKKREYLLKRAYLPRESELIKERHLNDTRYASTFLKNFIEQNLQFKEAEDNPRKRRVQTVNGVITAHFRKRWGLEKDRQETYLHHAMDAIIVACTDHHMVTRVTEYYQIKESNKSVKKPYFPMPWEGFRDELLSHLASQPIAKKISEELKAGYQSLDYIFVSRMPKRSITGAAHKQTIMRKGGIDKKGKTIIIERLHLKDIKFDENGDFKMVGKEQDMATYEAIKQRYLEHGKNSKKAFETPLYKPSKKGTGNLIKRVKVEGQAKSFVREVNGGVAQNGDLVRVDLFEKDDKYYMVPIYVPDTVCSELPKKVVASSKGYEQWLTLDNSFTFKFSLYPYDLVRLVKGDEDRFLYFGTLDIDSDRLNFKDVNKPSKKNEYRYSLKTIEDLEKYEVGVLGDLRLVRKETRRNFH
Nature of the data set: cell_activity; editing rate HEK293T; PAM 3' of target. From the text: (§1) Through alignment with closely related homologs, a unique 8 amino acid region at positions 590-597 was identified in APG07433.1 and its close homolog APG08290.1 (described in WO 2019/236566 and set forth herein as SEQ ID NO: 60). This region, set forth as SEQ ID NO: 365 for APG07433.1 and SEQ ID NO: 367 for APG08290.1, was removed from both proteins, resulting in variant RGNs APG07433.1-del (SEQ ID NO: 366) and APG08290.1-del (SEQ ID NO: 368). These deletion variants and their corresponding wild-type RGNs were assayed for editing activity in HEK293T cells using the guide RNAs indicated in Tables 32 and 33 following methods similar to those described in Example 1.

For data set [1], the target named is T2, APG07433.1-del (residues 590-597 deleted).
T2 chain: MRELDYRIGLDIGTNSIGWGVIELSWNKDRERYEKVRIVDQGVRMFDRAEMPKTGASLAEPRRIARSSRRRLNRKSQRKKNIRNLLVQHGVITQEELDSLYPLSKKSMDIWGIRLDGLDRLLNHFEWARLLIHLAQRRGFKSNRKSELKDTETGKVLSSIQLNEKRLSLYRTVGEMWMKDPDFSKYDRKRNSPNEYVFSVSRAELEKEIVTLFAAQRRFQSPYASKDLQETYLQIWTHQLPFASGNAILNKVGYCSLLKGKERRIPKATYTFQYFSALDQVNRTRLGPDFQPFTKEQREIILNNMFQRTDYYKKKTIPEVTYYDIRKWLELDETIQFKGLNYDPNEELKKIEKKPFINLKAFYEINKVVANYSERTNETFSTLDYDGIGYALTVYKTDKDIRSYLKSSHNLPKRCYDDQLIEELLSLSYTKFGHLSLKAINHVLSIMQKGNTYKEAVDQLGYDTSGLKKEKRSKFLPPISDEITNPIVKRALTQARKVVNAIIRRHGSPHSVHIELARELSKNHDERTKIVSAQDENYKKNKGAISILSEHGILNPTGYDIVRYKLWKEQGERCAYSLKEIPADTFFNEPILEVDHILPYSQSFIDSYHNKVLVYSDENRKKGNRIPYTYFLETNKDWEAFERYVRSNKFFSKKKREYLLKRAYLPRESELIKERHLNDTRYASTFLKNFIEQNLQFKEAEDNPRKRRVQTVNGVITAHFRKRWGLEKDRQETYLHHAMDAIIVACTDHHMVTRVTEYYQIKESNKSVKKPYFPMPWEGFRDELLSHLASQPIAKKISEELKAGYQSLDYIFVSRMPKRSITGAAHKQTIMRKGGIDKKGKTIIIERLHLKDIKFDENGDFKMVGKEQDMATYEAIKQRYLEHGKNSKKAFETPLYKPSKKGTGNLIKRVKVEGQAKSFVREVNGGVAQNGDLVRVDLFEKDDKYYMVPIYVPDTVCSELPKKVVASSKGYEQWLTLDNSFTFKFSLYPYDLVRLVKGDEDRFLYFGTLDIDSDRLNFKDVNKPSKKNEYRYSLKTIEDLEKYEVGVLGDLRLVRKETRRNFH
The description is as above.
Text: as §1

For a further data set, the target named is T3, APG08290.1 (Bacillus sp.).
T3 chain: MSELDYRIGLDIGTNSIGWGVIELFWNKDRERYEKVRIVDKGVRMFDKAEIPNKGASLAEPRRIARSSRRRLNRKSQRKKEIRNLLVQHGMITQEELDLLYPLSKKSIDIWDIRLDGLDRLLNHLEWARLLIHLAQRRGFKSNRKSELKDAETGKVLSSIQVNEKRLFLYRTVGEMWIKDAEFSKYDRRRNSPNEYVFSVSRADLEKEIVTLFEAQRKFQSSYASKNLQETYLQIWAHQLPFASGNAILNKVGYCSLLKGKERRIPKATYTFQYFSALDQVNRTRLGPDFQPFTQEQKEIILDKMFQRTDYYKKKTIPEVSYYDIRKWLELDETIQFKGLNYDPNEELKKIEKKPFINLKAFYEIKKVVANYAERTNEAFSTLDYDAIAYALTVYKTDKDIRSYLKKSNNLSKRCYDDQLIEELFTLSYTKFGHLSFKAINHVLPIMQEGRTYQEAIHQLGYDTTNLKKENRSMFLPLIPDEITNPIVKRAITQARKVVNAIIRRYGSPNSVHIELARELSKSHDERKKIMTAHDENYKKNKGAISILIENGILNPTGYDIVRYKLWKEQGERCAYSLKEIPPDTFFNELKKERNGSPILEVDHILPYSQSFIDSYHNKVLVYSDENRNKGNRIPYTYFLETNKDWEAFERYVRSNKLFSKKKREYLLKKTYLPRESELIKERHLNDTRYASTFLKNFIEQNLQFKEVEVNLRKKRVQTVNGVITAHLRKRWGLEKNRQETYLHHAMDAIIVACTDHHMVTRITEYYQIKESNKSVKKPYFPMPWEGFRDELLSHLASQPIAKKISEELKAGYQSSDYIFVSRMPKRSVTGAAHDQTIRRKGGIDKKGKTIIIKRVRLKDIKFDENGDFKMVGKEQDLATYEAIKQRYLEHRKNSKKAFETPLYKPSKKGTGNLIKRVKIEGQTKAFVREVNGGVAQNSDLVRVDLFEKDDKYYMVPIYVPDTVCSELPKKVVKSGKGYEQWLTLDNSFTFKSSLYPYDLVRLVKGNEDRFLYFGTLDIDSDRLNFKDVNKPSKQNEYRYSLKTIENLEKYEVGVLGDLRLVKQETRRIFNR
Nature of the data set: cell_activity; editing rate HEK293T; PAM not stated.
Text: as §1

The next data set addresses T4, APG08290.1-del.
T4 chain: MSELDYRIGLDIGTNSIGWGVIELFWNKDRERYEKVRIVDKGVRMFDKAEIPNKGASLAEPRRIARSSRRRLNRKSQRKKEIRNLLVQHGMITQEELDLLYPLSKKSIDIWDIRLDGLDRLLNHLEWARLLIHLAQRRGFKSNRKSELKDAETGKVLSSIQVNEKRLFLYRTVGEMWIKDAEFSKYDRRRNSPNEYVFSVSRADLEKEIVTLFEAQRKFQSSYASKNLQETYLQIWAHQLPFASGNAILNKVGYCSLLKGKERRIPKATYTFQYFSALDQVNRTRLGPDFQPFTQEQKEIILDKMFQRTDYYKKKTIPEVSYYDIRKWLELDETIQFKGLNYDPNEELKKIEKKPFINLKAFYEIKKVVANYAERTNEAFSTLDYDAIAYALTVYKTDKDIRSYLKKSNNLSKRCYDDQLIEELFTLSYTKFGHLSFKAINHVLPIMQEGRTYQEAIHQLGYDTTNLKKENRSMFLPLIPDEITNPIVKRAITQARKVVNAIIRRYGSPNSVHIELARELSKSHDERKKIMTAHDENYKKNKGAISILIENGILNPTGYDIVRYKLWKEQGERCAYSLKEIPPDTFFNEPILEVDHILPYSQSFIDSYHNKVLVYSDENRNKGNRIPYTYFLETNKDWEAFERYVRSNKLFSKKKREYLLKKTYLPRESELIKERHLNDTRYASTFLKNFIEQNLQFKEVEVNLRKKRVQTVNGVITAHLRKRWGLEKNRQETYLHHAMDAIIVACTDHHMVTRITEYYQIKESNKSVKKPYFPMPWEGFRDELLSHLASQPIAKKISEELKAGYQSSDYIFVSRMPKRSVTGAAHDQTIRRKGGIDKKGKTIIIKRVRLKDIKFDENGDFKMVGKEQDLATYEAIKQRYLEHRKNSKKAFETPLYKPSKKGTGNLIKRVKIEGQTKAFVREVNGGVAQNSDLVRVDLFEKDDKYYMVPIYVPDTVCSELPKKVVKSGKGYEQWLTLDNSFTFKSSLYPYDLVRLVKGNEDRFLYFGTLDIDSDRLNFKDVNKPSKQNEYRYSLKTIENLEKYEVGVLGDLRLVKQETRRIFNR
Described as above.
Text: as §1

B1: SGN000169 sgRNA ; SGN000169 target (ssRNA ; dsDNA)
RNA: CACAUCUCGAGCAAGACGUUGUCAUAGUUCCAUUAAAGCCAAAAGUGGCUUUGAUGUUUCUAUGAUAAGGGUUUCGACCCGUGGCGUCGGGGAUCGCCUGCCCAUUGAAAUGGGCUUCUCCCCAUUUAUU
DNA 1: CACATCTCGAGCAAGACGTT
DNA 2: AACGTCTTGCTCGAGATGTG
On to B1, for which the activity in the data set with APG07433.1 turned out to be 13.4%; in data set [1], 15.5%.

B2: SGN000930 sgRNA (Table 33) ; SGN000930 target (Table 33) (ssRNA ; dsDNA)
RNA: GAACAACUCAAAUGGAAAUGAAUAUGUCAUAGUUCCAUGAAAGCCAAAAGUGGCUUUGAUGUUUCUAUGAUAAGGGUUUCGGCCCGUGGCGUCGGGGAUCGCCUGCCCAUUCCGAUGGGCUUCUCCCCAUUUAUU
DNA 1: GAACAACTCAAATGGAAATGAATAT
DNA 2: ATATTCATTTCCATTTGAGTTGTTC
On to B2, for which the figures for the activity with APG08290.1 and with APG08290.1-del were 9.93% and 6.47%, respectively.

B3: SGN000929 sgRNA ; SGN000929 target (ssRNA ; dsDNA)
RNA: AUCUGGAGGGAACUUACAGCAUAUGGUCAUAGUUCCAUGAAAGCCAAAAGUGGCUUUGAUGUUUCUAUGAUAAGGGUUUCGGCCCGUGGCGUCGGGGAUCGCCUGCCCAUUCCGAUGGGCUUCUCCCCAUUUAUU
DNA 1: ATCTGGAGGGAACTTACAGCATATG
DNA 2: CATATGCTGTAAGTTCCCTCCAGAT
Regarding B3, the activity was 1.83% in the data set with APG08290.1 and 0.61% in the data set with APG08290.1-del.

B4: SGN000186 sgRNA (Table 32) ; SGN000186 target (Table 32) (ssRNA ; dsDNA)
RNA: GGACAGUGCGCAUCUCCCUGGUCAUAGUUCCAUUAAAGCCAAAAGUGGCUUUGAUGUUUCUAUGAUAAGGGUUUCGACCCGUGGCGUCGGGGAUCGCCUGCCCAUUGAAAUGGGCUUCUCCCCAUUUAUU
DNA 1: GGACAGTGCGCATCTCCCTG
DNA 2: CAGGGAGATGCGCACTGTCC
For B4, the activity in data set [1] came out at 15.2%.

B5: SGN000139 sgRNA (Table 32) ; SGN000139 target (Table 32) (ssRNA ; dsDNA)
RNA: AGGUUUUAAUGGCCCAGCCUGUCAUAGUUCCAUUAAAGCCAAAAGUGGCUUUGAUGUUUCUAUGAUAAGGGUUUCGACCCGUGGCGUCGGGGAUCGCCUGCCCAUUGAAAUGGGCUUCUCCCCAUUUAUU
DNA 1: AGGTTTTAATGGCCCAGCCT
DNA 2: AGGCTGGGCCATTAAAACCT
On to B5, for which the activity with APG07433.1 amounted to 11.1%.
